In publication PMC3865217:

Experiments:
Assay in all cases: SPR
Details in all cases: EMSA: 5 mM Hepes pH 7.5, 0.05 mM EDTA, 0.014% Nonidet P40, 5% glycerol, 30 min, 23 C; SPR: 5 mM Hepes pH 7.5, 5 mM phosphate pH 7.5, 0.05 mM EDTA …
[1] = system: Yap8bZIP (Saccharomyces cerevisiae)
[2] = system: Yap8bZIPLNNR (Saccharomyces cerevisiae)
[3] = system: Yap8bZIPL26A (Saccharomyces cerevisiae)

In the case of Y8RE 25-bp SPR oligomer, the Kd [1] is reported as 6.1 nM, the Kd [2] is reported as 6.5 nM and the Kd [3] is reported as 17.2 nM.
